Assay results from publication PMC11050134.

Tests used:
transferrin = transferrin (UniProt P02787)
[1] = molecular target: porcine thyroglobulin (porcine) (UniProt F1RRV3)
[2] = molecular target: asialo-bovine submaxillary mucin (bovine)
fetuin = fetuin (UniProt P12763)
[3] = molecular target: bovine submaxillary mucin (bovine)
asialo-fetuin = asialo-fetuin (UniProt P12763)
[4] = molecular target: asialo-porcine thyroglobulin (porcine) (UniProt F1RRV3)
asialo-transferrin = asialo-transferrin (UniProt P02787)
[5] = molecular target: influenza viral envelope hemagglutinin, vaccine preparation (Denka-Seken) with a mixture of the hema (influenza A virus (H1N1, H3N2) and influenza B virus); test: SPR; BIAcore X100; […]; HBS-N (10 mM HEPES, 150 mM NaCl, pH 7.4), 30 μL/min, […], dissociation 600 s; Langmuir 1:1 fit
[6] = molecular target: Halimeda borneensis lectin HBL40 (Halimeda borneensis); test: SDS-PAGE, non-reducing against reducing; purified HBL40 on 12% gel with and without 2% 2-mercaptoethanol, Coomassie stain; about 40 kDa non-reducing, 20 kDa reducing

Substance: Halimeda borneensis lectin HBL40 (natural protein)
- hemagglutination inhibition (trypsin-treated rabbit erythrocytes): lowest concentration of glycoprotein that completely inhibited the hemagglutination activity of a lectin solution of titer 4 (transferrin): 500 µg/mL
- hemagglutination inhibition (trypsin-treated rabbit erythrocytes): lowest concentration of glycoprotein that completely inhibited the hemagglutination activity of a lectin solution of titer 4 [1]: 31.3 µg/mL
- hemagglutination inhibition (trypsin-treated rabbit erythrocytes): lowest concentration of glycoprotein that completely inhibited the hemagglutination activity of a lectin solution of titer 4 [2]: 31.3 µg/mL
- hemagglutination inhibition (trypsin-treated rabbit erythrocytes): lowest concentration of glycoprotein that completely inhibited the hemagglutination activity of a lectin solution of titer 4 (fetuin): 1000 µg/mL
- hemagglutination inhibition (trypsin-treated rabbit erythrocytes): lowest concentration of glycoprotein that completely inhibited the hemagglutination activity of a lectin solution of titer 4 [3]: 62.5 µg/mL
- hemagglutination inhibition (trypsin-treated rabbit erythrocytes): lowest concentration of glycoprotein that completely inhibited the hemagglutination activity of a lectin solution of titer 4 (asialo-fetuin): 125 µg/mL
- hemagglutination inhibition (trypsin-treated rabbit erythrocytes): lowest concentration of glycoprotein that completely inhibited the hemagglutination activity of a lectin solution of titer 4 [4]: 15.6 µg/mL
- hemagglutination inhibition (trypsin-treated rabbit erythrocytes): lowest concentration of glycoprotein that completely inhibited the hemagglutination activity of a lectin solution of titer 4 (asialo-transferrin): 62.5 µg/mL
- Kd [5]: 1210 nM
- koff [5]: 0.0433 s⁻¹
- kon [5]: 35600 M⁻¹ s⁻¹
- stoichiometry N [6]: 2
